Measured values from publication PMC9474862.

Target: APE1 WT (Homo sapiens) (UniProt P27695)
Assay: EMSA
Settings: apparent Kd, 1 mM EDTA, EMSA: 20 nM NCP, 10 mM HEPES pH 7.5, 25 mM NaCl, 1 mM DTT, 0.1 mg/mL BSA, 5% native PAGE, 0.2x TBE, 4 °C (gel), binding temperature not stated

Sequence of UniProt P27695 (P27695 whole entry): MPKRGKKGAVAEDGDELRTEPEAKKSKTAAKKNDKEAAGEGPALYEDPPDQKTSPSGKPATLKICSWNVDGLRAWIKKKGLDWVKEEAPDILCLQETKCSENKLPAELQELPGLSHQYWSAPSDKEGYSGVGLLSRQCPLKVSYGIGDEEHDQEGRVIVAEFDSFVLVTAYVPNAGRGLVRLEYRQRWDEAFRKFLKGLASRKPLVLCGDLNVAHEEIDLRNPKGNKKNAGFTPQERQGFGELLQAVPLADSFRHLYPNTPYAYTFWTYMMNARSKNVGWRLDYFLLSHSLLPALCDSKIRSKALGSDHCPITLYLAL

## ATCGAGAATCCCGGTGCCGAGGCCGCTCAATTGGTCGTAGACAGCTCTAGCACCGCTTAAACGCACGTACGCGCTGTCCCCCGCGTTTTAACCGCCAAGGGGATTACTCCCTAGTCTCCAGGCACGTGTCAGATATATNCATCCGAT / ATCGGATGTATATATCTGACACGTGCCTGGAGACTAGGGAGTAATCCCCTTGGCGGTTAAAACGCGGGGGACAGCGCGTACGTGCGTTTAAGCGGTGCTAGAGCTGTCTACGACCAATTGAGCGGCCTCGGCACCGGGATTCTCGAT [AP-NCP-6]
one-site fit with ligand depletion, N in strand 1 = THF (AP site analog) at SHL-6, solvent-exposed
  Kd: 17 nM

## ATCGAGAATCCCGGTGCCGAGGCCGCTCAATTGGTCGTAGACAGCTCTAGCACCGCTTAAACGCACGTACGCGCTGTCCCCCGCGTTTTAACCGCCAAGGGGATTACTCCCTAGTCTCCAGGCACGTGTCAGATATATACATNCGAT / ATCGGATGTATATATCTGACACGTGCCTGGAGACTAGGGAGTAATCCCCTTGGCGGTTAAAACGCGGGGGACAGCGCGTACGTGCGTTTAAGCGGTGCTAGAGCTGTCTACGACCAATTGAGCGGCCTCGGCACCGGGATTCTCGAT [AP-NCP-6.5]
one-site fit with ligand depletion, N in strand 1 = THF (AP site analog) at SHL-6.5, occluded
  Kd: 20 nM

## ATCGAGAATCCCGGTGCCGAGGCCGCTCAATTGGTCGTAGACAGCTCTAGCACCGCTTAAACGCACGTACGCNCTGTCCCCCGCGTTTTAACCGCCAAGGGGATTACTCCCTAGTCTCCAGGCACGTGTCAGATATATACATCCGAT / ATCGGATGTATATATCTGACACGTGCCTGGAGACTAGGGAGTAATCCCCTTGGCGGTTAAAACGCGGGGGACAGCGCGTACGTGCGTTTAAGCGGTGCTAGAGCTGTCTACGACCAATTGAGCGGCCTCGGCACCGGGATTCTCGAT [AP-NCP0]
one-site fit with ligand depletion, N in strand 1 = THF (AP site analog) at SHL0 (dyad), occluded
  Kd: 20 nM

## ATCGAGAATCCCGGTGCCGAGGCCGCTCAATTGGTCGTAGACAGCTCTAGCACCGCTTAAACGCACGTACGCGCTGTCCCCCGCGTTTTAACCGCCAAGGGGATTACTCCCTAGTCTCCAGGCACGTGTCAGATATATACATCCGAT (double strand) [ND-NCP]
Nonspecific binding, no AP site
  Kd: 71 nM
